Non-standard residues stand in square brackets, D forms with d. No end group written: not given here. Aib = CC(C)(N)C(=O)O
Experiments:
[1] = molecular target: human GLP-R (human, UniProt P43220 24-463); assay: cell-based or functional assay
[2] = molecular target: T1, human GIP-R (human, UniProt P48546 22-466); assay: cell-based or functional assay
T1 sequence (looked up): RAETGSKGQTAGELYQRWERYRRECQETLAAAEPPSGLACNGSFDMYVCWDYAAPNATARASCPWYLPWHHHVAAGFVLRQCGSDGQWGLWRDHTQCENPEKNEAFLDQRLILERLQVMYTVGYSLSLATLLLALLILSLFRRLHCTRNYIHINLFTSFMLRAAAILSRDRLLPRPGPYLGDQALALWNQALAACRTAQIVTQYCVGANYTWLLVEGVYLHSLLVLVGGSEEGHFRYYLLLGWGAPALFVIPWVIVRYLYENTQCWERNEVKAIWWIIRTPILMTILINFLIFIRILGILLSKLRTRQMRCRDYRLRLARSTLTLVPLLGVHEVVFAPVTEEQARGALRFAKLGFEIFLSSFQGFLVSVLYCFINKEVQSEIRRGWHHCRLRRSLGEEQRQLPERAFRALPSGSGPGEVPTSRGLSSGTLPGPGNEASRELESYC

## Y[Aib]EGTFTSDYSIYLDKQAA[Aib]EFVAWLLAGGPSSGAPPPSKLPETGGSGS-NH2 (also: PEG (site and size not given here)) [PEG-peptide-long24A]
[1]
  EC50 [nM], GLP1-R (cAMP assay): 3.89 nM
[2]
  EC50 [nM], GIP-R (cAMP assay): 7.51 nM

Reference: patent US20160310575A1 (INDIANA UNIVERSITY RESEARCH AND TECHNOLOGY, published 2016)
